The numbers were not newly measured in PMC7116363 (Biomaterials, 2020), which cites them from elsewhere.

Data set [1] relates to L cells. The settings on record: in mice.
Assay in data set [2]: not given
The source holds these as a separate data set.

In the case of `CCC(=O)O` [propionate], the “effective concentration of propionate needed to exert an effect on L cells” value in data set [1] is on record as 140 mmol/L.

For liraglutide, the “circulating levels after oral co-administration with SNAC” value is reported as “failed to provide circulating levels”.

Turning to semaglutide, the half-life (usually the time in which the quantity being followed falls by half) in data set [2] was 165 h.
